Positions count from the first letter of the chain named. Names and notes keep the numbering of the source. Blank lines part the entries; values can stand above or below the binder they belong to.
Tests used:
[1] = target: tau 2N4R (recombinant; 15N-labelled for NMR) (Homo sapiens, UniProt P10636-8); assay: cell-based or functional assay
[2] = target: T1, biotinylated tau 2N4R (Homo sapiens, UniProt P10636-8, biotin (N-hydroxysuccimide-biotin conjugates, 5 M excess)); assay: SPR; biotinylated tau 2N4R captured on a streptavidin chip (500 RU); VHHs as analytes, 0.125-2 uM, single-cycle kinetics; HBS-EP+ buffer; 1:1 Langmuir model; Kd calculated as koff/kon; settings: both partners purified
T1 construct: tau protein, 2N4R isoform, NCBI NP_005901.2; Expressed from pET15b-tau; also called full-length tau; source: E. coli BL21 (DE3), purified (heating, cation exchange), then biotinylated
T1 sequence (P10636 other isoform, or with tags, fused parts or gaps): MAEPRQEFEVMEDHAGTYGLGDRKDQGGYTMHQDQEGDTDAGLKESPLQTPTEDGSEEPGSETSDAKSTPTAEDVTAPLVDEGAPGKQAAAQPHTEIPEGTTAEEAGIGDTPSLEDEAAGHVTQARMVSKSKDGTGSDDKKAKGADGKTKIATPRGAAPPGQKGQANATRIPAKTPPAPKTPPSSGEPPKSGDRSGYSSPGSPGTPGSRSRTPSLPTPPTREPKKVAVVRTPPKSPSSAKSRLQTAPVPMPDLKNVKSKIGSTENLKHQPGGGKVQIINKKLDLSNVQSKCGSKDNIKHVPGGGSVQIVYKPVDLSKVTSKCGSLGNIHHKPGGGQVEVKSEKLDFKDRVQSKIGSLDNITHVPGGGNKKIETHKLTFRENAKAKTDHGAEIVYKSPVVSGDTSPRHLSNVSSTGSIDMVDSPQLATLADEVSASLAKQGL

Chain of tau 2N4R (recombinant; 15N-labelled for NMR) (P10636 other isoform, or with tags, fused parts or gaps): as above

- heparin-induced tau 2N4R aggregation, thioflavin fluorescence intensity ratio between tau with VHH and tau alone; VHH:tau 0.2:1 (46.2%) and 0.5:1 (25%) [1]: 46.2%
- Kd [2]: 147.8 ± 0.9 nM
- koff [2]: 0.00267 s⁻¹
- kon [2]: 18100 M⁻¹ s⁻¹
B1: VHH Z70 (VHH)
VHH: EVQLQASGGVFVQSGGSLRLSCAASGATSTFDGMGWFRQAPGKEREFVSAISYEQGSYTYYADSVKGRFTISRDNSKNMVYLQMNSLRAEDTATYYCAPAYEGDLYAFDSYGGQGTQVTVSS
notes: VHH Z70; also in PDB 7QCQ; also called parent VHH; source: E. coli BL21 (DE3), periplasm, purified (IMAC, SEC)

- Kd [2]: 80.5 ± 1.5 nM
- koff [2]: 0.0021 s⁻¹
- kon [2]: 26000 M⁻¹ s⁻¹
B2: VHH Z70 mutant 3 (R47K) (VHH)
VHH: B1 VHH with R45K
notes: as the chain of m1 (VHH Z70); also called Mut3; source: E. coli BL21 (DE3), periplasm, purified (IMAC, SEC)

- Kd [2]: 22.7 ± 0.5 nM
- koff [2]: 0.00242 s⁻¹
- kon [2]: 107000 M⁻¹ s⁻¹
B3: VHH Z70 mutant 1 (G115E) (VHH)
VHH: B1 VHH with G113E
notes: as the chain of m1 (VHH Z70); also called Mut1; source: E. coli BL21 (DE3), periplasm, purified (IMAC, SEC)

- Kd [2]: 80.8 ± 1.5 nM
- koff [2]: 0.000882 s⁻¹
- kon [2]: 10900 M⁻¹ s⁻¹
B4: VHH Z70 mutant 5 (T96S) (VHH)
VHH: B1 VHH with T94S
notes: as the chain of m1 (VHH Z70); also called Mut5; source: E. coli BL21 (DE3), periplasm, purified (IMAC, SEC)

- Kd [2]: 51.1 ± 0.6 nM
- koff [2]: 0.00205 s⁻¹
- kon [2]: 40100 M⁻¹ s⁻¹
B5: VHH Z70 mutant 9 (P101S + G115E) (VHH)
VHH: B1 VHH with P99S, G113E
notes: as the chain of m1 (VHH Z70); also called Mut9; source: E. coli BL21 (DE3), periplasm, purified (IMAC, SEC)

- Kd [2]: 42.5 ± 0.7 nM
- koff [2]: 0.00277 s⁻¹
- kon [2]: 65300 M⁻¹ s⁻¹
B6: VHH Z70 mutant 15 (R90G + P101S + G114E) (VHH)
VHH: B1 VHH with R88G, P99S, G112E
notes: as the chain of m1 (VHH Z70); also called Mut15; source: E. coli BL21 (DE3), periplasm, purified (IMAC, SEC)

- Kd [2]: 41.8 ± 0.7 nM
- koff [2]: 0.00089 s⁻¹
- kon [2]: 21300 M⁻¹ s⁻¹
B7: VHH Z70 mutant 20 (R47K + G115E) (VHH)
VHH: B1 VHH with R45K, G113E
notes: as the chain of m1 (VHH Z70); Generated by the authors, not found in the screen; also called Mut20; source: E. coli BL21 (DE3), periplasm, purified (IMAC, SEC)

- Kd [2]: 74.3 ± 0.8 nM
- koff [2]: 0.0014 s⁻¹
- kon [2]: 18800 M⁻¹ s⁻¹
B8: VHH Z70 mutant 14 (VHH)
VHH: B1 VHH with T30I, E54G, G113E
notes: as the chain of m1 (VHH Z70); The text says only that G115E is combined with additional substitutions in mutant 14; also called Mut14; source: E. coli BL21 (DE3), periplasm, purified (IMAC, SEC)

- Kd [2]: 61.2 ± 0.6 nM
- koff [2]: 0.00207 s⁻¹
- kon [2]: 33900 M⁻¹ s⁻¹
B9: VHH Z70 mutant 12 (S23C + G115E) (VHH)
VHH: B1 VHH with S21C, G113E
notes: as the chain of m1 (VHH Z70); also called Mut12; source: E. coli BL21 (DE3), periplasm, purified (IMAC, SEC)

From article PMC11007443, “A selection and optimization strategy for single-domain antibodies targeting the PHF6 linear peptide within the tau intrinsically disordered protein” (The Journal of Biological Chemistry, 2024)
